Data as given in patent US20260015399A1 (Boehringer Ingelheim, published 2026).
*1 amine or outer side, *2 acyl side, *3 side chain or, on linkers, in order; H or OH if unused. Side-chain parts run from the residue outwards. The star is where a group is joined. C18 diacid = O=C(O)CCCCCCCCCCCCCCCCC(=O)*; γGlu = O=C(O)[C@H](CCC(=O)[*:2])N[*:1]; Isovaleryl = CC(C)CC(=O)*; Ahx = NCCCCCC(=O)O

T1: human NPY2 receptor (human, UniProt P49146 1-381)
T1 construct: whole, on cells; also called hNPY2-R; hNPY2R
T1 sequence (looked up): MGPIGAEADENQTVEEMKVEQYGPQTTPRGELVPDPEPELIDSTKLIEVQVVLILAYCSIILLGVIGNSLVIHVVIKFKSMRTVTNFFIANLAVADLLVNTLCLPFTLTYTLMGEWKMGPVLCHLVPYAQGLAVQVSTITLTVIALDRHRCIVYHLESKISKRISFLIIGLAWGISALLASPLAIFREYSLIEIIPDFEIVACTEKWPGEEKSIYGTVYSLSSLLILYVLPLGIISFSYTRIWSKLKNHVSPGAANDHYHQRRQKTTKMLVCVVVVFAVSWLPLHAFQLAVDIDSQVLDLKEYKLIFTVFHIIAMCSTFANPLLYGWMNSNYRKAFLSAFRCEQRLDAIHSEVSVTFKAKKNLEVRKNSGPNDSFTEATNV

B1: Compound 144 (peptide)
peptide: Isovaleryl-APEK([Ahx-γGlu-C18 diacid])PEEDQTPEELQRYYVSLRHYYNWLTRQRY-NH2
SMILES: CC(C)CC(=O)N[C@@H](C)C(=O)N1CCC[C@H]1C(=O)N[C@@H](CCC(=O)O)C(=O)N[C@@H](CCCCNC(=O)CCCCCNC(=O)CC[C@H](NC(=O)CCCCCCCCCCCCCCCCC(=O)O)C(=O)O)C(=O)N1CCC[C@H]1C(=O)N[C@@H](CCC(=O)O)C(=O)N[C@@H](CCC(=O)O)C(=O)N[C@@H](CC(=O)O)C(=O)N[C@@H](CCC(N)=O)C(=O)N[C@H](C(=O)N1CCC[C@H]1C(=O)N[C@@H](CCC(=O)O)C(=O)N[C@@H](CCC(=O)O)C(=O)N[C@@H](CC(C)C)C(=O)N[C@@H](CCC(N)=O)C(=O)N[C@@H](CCCNC(=N)N)C(=O)N[C@@H](Cc1ccc(O)cc1)C(=O)N[C@@H](Cc1ccc(O)cc1)C(=O)N[C@H](C(=O)N[C@@H](CO)C(=O)N[C@@H](CC(C)C)C(=O)N[C@@H](CCCNC(=N)N)C(=O)N[C@@H](Cc1c[nH]cn1)C(=O)N[C@@H](Cc1ccc(O)cc1)C(=O)N[C@@H](Cc1ccc(O)cc1)C(=O)N[C@@H](CC(N)=O)C(=O)N[C@@H](Cc1c[nH]c2ccccc12)C(=O)N[C@@H](CC(C)C)C(=O)N[C@H](C(=O)N[C@@H](CCCNC(=N)N)C(=O)N[C@@H](CCC(N)=O)C(=O)N[C@@H](CCCNC(=N)N)C(=O)N[C@@H](Cc1ccc(O)cc1)C(N)=O)[C@@H](C)O)C(C)C)[C@@H](C)O
B2: Compound 153 (peptide)
peptide: Isovaleryl-APEK([Ahx-γGlu-C18 diacid])PEELATPEELQRYYVSLRHYYNWLTRQRY-NH2
SMILES: CC(C)CC(=O)N[C@@H](C)C(=O)N1CCC[C@H]1C(=O)N[C@@H](CCC(=O)O)C(=O)N[C@@H](CCCCNC(=O)CCCCCNC(=O)CC[C@H](NC(=O)CCCCCCCCCCCCCCCCC(=O)O)C(=O)O)C(=O)N1CCC[C@H]1C(=O)N[C@@H](CCC(=O)O)C(=O)N[C@@H](CCC(=O)O)C(=O)N[C@@H](CC(C)C)C(=O)N[C@@H](C)C(=O)N[C@H](C(=O)N1CCC[C@H]1C(=O)N[C@@H](CCC(=O)O)C(=O)N[C@@H](CCC(=O)O)C(=O)N[C@@H](CC(C)C)C(=O)N[C@@H](CCC(N)=O)C(=O)N[C@@H](CCCNC(=N)N)C(=O)N[C@@H](Cc1ccc(O)cc1)C(=O)N[C@@H](Cc1ccc(O)cc1)C(=O)N[C@H](C(=O)N[C@@H](CO)C(=O)N[C@@H](CC(C)C)C(=O)N[C@@H](CCCNC(=N)N)C(=O)N[C@@H](Cc1c[nH]cn1)C(=O)N[C@@H](Cc1ccc(O)cc1)C(=O)N[C@@H](Cc1ccc(O)cc1)C(=O)N[C@@H](CC(N)=O)C(=O)N[C@@H](Cc1c[nH]c2ccccc12)C(=O)N[C@@H](CC(C)C)C(=O)N[C@H](C(=O)N[C@@H](CCCNC(=N)N)C(=O)N[C@@H](CCC(N)=O)C(=O)N[C@@H](CCCNC(=N)N)C(=O)N[C@@H](Cc1ccc(O)cc1)C(N)=O)[C@@H](C)O)C(C)C)[C@@H](C)O
B3: Compound 151 (peptide)
peptide: Isovaleryl-APEK([Ahx-γGlu-C18 diacid])PEEDSSPEELQRYYVALRHYYNWLTRQRY-NH2
SMILES: CC(C)CC(=O)N[C@@H](C)C(=O)N1CCC[C@H]1C(=O)N[C@@H](CCC(=O)O)C(=O)N[C@@H](CCCCNC(=O)CCCCCNC(=O)CC[C@H](NC(=O)CCCCCCCCCCCCCCCCC(=O)O)C(=O)O)C(=O)N1CCC[C@H]1C(=O)N[C@@H](CCC(=O)O)C(=O)N[C@@H](CCC(=O)O)C(=O)N[C@@H](CC(=O)O)C(=O)N[C@@H](CO)C(=O)N[C@@H](CO)C(=O)N1CCC[C@H]1C(=O)N[C@@H](CCC(=O)O)C(=O)N[C@@H](CCC(=O)O)C(=O)N[C@@H](CC(C)C)C(=O)N[C@@H](CCC(N)=O)C(=O)N[C@@H](CCCNC(=N)N)C(=O)N[C@@H](Cc1ccc(O)cc1)C(=O)N[C@@H](Cc1ccc(O)cc1)C(=O)N[C@H](C(=O)N[C@@H](C)C(=O)N[C@@H](CC(C)C)C(=O)N[C@@H](CCCNC(=N)N)C(=O)N[C@@H](Cc1c[nH]cn1)C(=O)N[C@@H](Cc1ccc(O)cc1)C(=O)N[C@@H](Cc1ccc(O)cc1)C(=O)N[C@@H](CC(N)=O)C(=O)N[C@@H](Cc1c[nH]c2ccccc12)C(=O)N[C@@H](CC(C)C)C(=O)N[C@H](C(=O)N[C@@H](CCCNC(=N)N)C(=O)N[C@@H](CCC(N)=O)C(=O)N[C@@H](CCCNC(=N)N)C(=O)N[C@@H](Cc1ccc(O)cc1)C(N)=O)[C@@H](C)O)C(C)C
notes: printed structure identical to Compound 24
B4: Compound 148 (peptide)
peptide: Isovaleryl-APEK([Ahx-γGlu-C18 diacid])PEEDATPEELQRYYVTLRHYYNWLTRQRY-NH2
SMILES: CC(C)CC(=O)N[C@@H](C)C(=O)N1CCC[C@H]1C(=O)N[C@@H](CCC(=O)O)C(=O)N[C@@H](CCCCNC(=O)CCCCCNC(=O)CC[C@H](NC(=O)CCCCCCCCCCCCCCCCC(=O)O)C(=O)O)C(=O)N1CCC[C@H]1C(=O)N[C@@H](CCC(=O)O)C(=O)N[C@@H](CCC(=O)O)C(=O)N[C@@H](CC(=O)O)C(=O)N[C@@H](C)C(=O)N[C@H](C(=O)N1CCC[C@H]1C(=O)N[C@@H](CCC(=O)O)C(=O)N[C@@H](CCC(=O)O)C(=O)N[C@@H](CC(C)C)C(=O)N[C@@H](CCC(N)=O)C(=O)N[C@@H](CCCNC(=N)N)C(=O)N[C@@H](Cc1ccc(O)cc1)C(=O)N[C@@H](Cc1ccc(O)cc1)C(=O)N[C@H](C(=O)N[C@H](C(=O)N[C@@H](CC(C)C)C(=O)N[C@@H](CCCNC(=N)N)C(=O)N[C@@H](Cc1c[nH]cn1)C(=O)N[C@@H](Cc1ccc(O)cc1)C(=O)N[C@@H](Cc1ccc(O)cc1)C(=O)N[C@@H](CC(N)=O)C(=O)N[C@@H](Cc1c[nH]c2ccccc12)C(=O)N[C@@H](CC(C)C)C(=O)N[C@H](C(=O)N[C@@H](CCCNC(=N)N)C(=O)N[C@@H](CCC(N)=O)C(=O)N[C@@H](CCCNC(=N)N)C(=O)N[C@@H](Cc1ccc(O)cc1)C(N)=O)[C@@H](C)O)[C@@H](C)O)C(C)C)[C@@H](C)O
B5: Compound 149 (peptide)
peptide: Isovaleryl-APAK([Ahx-γGlu-C18 diacid])PEEDASPEESQRYYVSLRHYYNWLTRQRY-NH2
SMILES: CC(C)CC(=O)N[C@@H](C)C(=O)N1CCC[C@H]1C(=O)N[C@@H](C)C(=O)N[C@@H](CCCCNC(=O)CCCCCNC(=O)CC[C@H](NC(=O)CCCCCCCCCCCCCCCCC(=O)O)C(=O)O)C(=O)N1CCC[C@H]1C(=O)N[C@@H](CCC(=O)O)C(=O)N[C@@H](CCC(=O)O)C(=O)N[C@@H](CC(=O)O)C(=O)N[C@@H](C)C(=O)N[C@@H](CO)C(=O)N1CCC[C@H]1C(=O)N[C@@H](CCC(=O)O)C(=O)N[C@@H](CCC(=O)O)C(=O)N[C@@H](CO)C(=O)N[C@@H](CCC(N)=O)C(=O)N[C@@H](CCCNC(=N)N)C(=O)N[C@@H](Cc1ccc(O)cc1)C(=O)N[C@@H](Cc1ccc(O)cc1)C(=O)N[C@H](C(=O)N[C@@H](CO)C(=O)N[C@@H](CC(C)C)C(=O)N[C@@H](CCCNC(=N)N)C(=O)N[C@@H](Cc1c[nH]cn1)C(=O)N[C@@H](Cc1ccc(O)cc1)C(=O)N[C@@H](Cc1ccc(O)cc1)C(=O)N[C@@H](CC(N)=O)C(=O)N[C@@H](Cc1c[nH]c2ccccc12)C(=O)N[C@@H](CC(C)C)C(=O)N[C@H](C(=O)N[C@@H](CCCNC(=N)N)C(=O)N[C@@H](CCC(N)=O)C(=O)N[C@@H](CCCNC(=N)N)C(=O)N[C@@H](Cc1ccc(O)cc1)C(N)=O)[C@@H](C)O)C(C)C
B6: Compound 152 (peptide)
peptide: Isovaleryl-APEK([Ahx-γGlu-C18 diacid])PEEDATPEETQRYYVSLRHYYNWLTRQRY-NH2
SMILES: CC(C)CC(=O)N[C@@H](C)C(=O)N1CCC[C@H]1C(=O)N[C@@H](CCC(=O)O)C(=O)N[C@@H](CCCCNC(=O)CCCCCNC(=O)CC[C@H](NC(=O)CCCCCCCCCCCCCCCCC(=O)O)C(=O)O)C(=O)N1CCC[C@H]1C(=O)N[C@@H](CCC(=O)O)C(=O)N[C@@H](CCC(=O)O)C(=O)N[C@@H](CC(=O)O)C(=O)N[C@@H](C)C(=O)N[C@H](C(=O)N1CCC[C@H]1C(=O)N[C@@H](CCC(=O)O)C(=O)N[C@@H](CCC(=O)O)C(=O)N[C@H](C(=O)N[C@@H](CCC(N)=O)C(=O)N[C@@H](CCCNC(=N)N)C(=O)N[C@@H](Cc1ccc(O)cc1)C(=O)N[C@@H](Cc1ccc(O)cc1)C(=O)N[C@H](C(=O)N[C@@H](CO)C(=O)N[C@@H](CC(C)C)C(=O)N[C@@H](CCCNC(=N)N)C(=O)N[C@@H](Cc1c[nH]cn1)C(=O)N[C@@H](Cc1ccc(O)cc1)C(=O)N[C@@H](Cc1ccc(O)cc1)C(=O)N[C@@H](CC(N)=O)C(=O)N[C@@H](Cc1c[nH]c2ccccc12)C(=O)N[C@@H](CC(C)C)C(=O)N[C@H](C(=O)N[C@@H](CCCNC(=N)N)C(=O)N[C@@H](CCC(N)=O)C(=O)N[C@@H](CCCNC(=N)N)C(=O)N[C@@H](Cc1ccc(O)cc1)C(N)=O)[C@@H](C)O)C(C)C)[C@@H](C)O)[C@@H](C)O

The binders below were run against T1, human NPY2 receptor (assay: RLB: displacement of 125I-PYY(1-36) from hNPY2R membranes).

| Ki [nM] | Binder |
| --- | --- |
| 9.76 | B1 |
| 6.8 | B2 |
| 1.68 | B3 |
| 2.85 | B4 |
| 3.97 | B5 |
| 1.32 | B6 |
